Measurements published in patent US20200247894A1 (Regeneron, published 2020).

Key:
[1] = molecular target: T1, human IL-2Rγ expressed on cells (human, UniProt P31785 23-369); experiment: flow cytometry on NK-92 cells, antibody at 10 µg/ml, MFI of sample over MFI of unstained; lower end, tied to H4H12859P by Table 9-1
T1 construct: whole, on cells; on cells it stands together with the cytokine-specific receptor subunits; also called IL-2Rgamma; CD132
T1 sequence (looked up): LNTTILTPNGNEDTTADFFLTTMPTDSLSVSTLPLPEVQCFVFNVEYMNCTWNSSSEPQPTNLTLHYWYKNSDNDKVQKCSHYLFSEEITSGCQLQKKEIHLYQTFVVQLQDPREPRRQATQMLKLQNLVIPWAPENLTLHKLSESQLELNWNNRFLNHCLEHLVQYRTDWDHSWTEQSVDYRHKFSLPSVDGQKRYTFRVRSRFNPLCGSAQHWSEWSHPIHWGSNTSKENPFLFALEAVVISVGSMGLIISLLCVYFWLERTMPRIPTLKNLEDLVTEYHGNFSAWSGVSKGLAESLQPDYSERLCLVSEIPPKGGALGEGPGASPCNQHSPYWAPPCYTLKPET
Protocol: (§1) For flow cytometry analyses, the cells were pre-incubated with mouse IgG at 100 μg/ml for 15 minutes at room temperature (RT) to block the binding of the antibodies to Fc receptors. […] Cells were washed, fixed using BD CytoFix™ (BD biosciences, #554655) and analyzed on an IQue® (Intellicyt®) Flow Cytometer or Accuri Flow cytometer (BD). […] The results were analyzed using ForeCyt® (IntelliCyt®) software to determine the geometric means of fluorescence (MFI) for viable cells. Binding ratios were calculated by normalizing the MFI of the test sample by the MFI of the unstained sample.

[2] = molecular target: T2, Human IL2Rγ extracellular domain expressed with a C-terminal mouse IgG2a Fc tag (human); experiment: SPR Biacore 4000, anti-hFc-captured mAb, 37 C; computed with kd fixed at 1.00E-05
T2 construct: whole entry is the Fc-fused construct; also called hIL-2Rg-mFc
T2 chain: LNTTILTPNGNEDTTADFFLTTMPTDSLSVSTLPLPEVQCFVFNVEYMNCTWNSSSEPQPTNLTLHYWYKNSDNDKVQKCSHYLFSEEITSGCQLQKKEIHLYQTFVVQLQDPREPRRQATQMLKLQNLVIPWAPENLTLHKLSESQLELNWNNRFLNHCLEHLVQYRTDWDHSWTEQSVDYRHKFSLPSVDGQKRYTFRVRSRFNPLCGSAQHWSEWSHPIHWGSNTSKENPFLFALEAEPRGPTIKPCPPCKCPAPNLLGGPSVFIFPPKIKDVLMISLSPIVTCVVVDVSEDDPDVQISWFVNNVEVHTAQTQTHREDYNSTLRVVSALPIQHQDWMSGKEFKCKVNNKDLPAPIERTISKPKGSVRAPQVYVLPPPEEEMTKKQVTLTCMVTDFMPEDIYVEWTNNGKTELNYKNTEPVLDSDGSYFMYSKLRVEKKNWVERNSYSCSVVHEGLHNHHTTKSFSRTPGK
Protocol: (§2) Equilibrium dissociation constants (KD values) for IL-2Rγ binding to purified anti-IL2Rγ monoclonal antibodies were determined using a Biacore 4000 instrument equipped with a real-time surface plasmon resonance biosensor. All binding studies were performed in 10 mM HEPES, 150 mM NaCl, 3 mM EDTA, and 0.05% v/v Surfactant Tween-20, pH 7.4 (HBS-ET) running buffer at 25° C. and 37° C. The Biacore sensor surface was first derivatized by amine coupling with a monoclonal mouse anti-human Fc antibody (GE, # BR-1008-39) to capture anti-IL2Rγ monoclonal antibodies.
(§3) The dissociation of monoclonal antibody bound IL2Rγ reagents were monitored for 8-10 minutes in HBS-ET running buffer. Kinetic association (kₐ) and dissociation (kd) rate constants were determined by fitting the real-time sensorgrams to a 1:1 binding model using Scrubber 2.0c curve fitting software. Binding dissociation equilibrium constants (KD) and dissociative half-lives (t_{1/2}) were calculated from the kinetic rate constants as: […]

[3] = molecular target: T3, Macaca fascicularis IL2Rγ extracellular domain expressed with a C-terminal myc-myc-hexahistidine tag (Macaca fascicularis); experiment: SPR Biacore 4000, anti-hFc-captured mAb, 37 C
T3 construct: whole entry is the tagged construct; also called mfIL-2Rg-MMH
T3 chain: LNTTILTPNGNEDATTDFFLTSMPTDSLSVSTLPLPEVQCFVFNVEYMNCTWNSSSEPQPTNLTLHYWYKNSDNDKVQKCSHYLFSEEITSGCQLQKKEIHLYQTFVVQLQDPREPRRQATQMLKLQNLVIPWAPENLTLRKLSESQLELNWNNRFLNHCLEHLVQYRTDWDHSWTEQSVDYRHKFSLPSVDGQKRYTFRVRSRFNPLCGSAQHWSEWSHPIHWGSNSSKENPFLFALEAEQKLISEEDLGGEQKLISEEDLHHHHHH
In short: (§4)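 KD and dissociative half-life come from rate constants obtained by 1:1 binding-model fits of real-time sensorgrams. Antibodies sit on an anti-human Fc capture surface, with HBS-ET (pH 7.4) as running buffer and an 8-10 minute dissociation phase.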

[4] = molecular target: T4, Rat IL2Rγ extracellular domain expressed with a C-terminal myc-myc-hexahistidine tag (rat); experiment: SPR Biacore 4000, anti-hFc-captured mAb, 37 C
T4 construct: whole entry is the tagged construct; also called rIL-2Rg-MMH; rat IL-2Rg-MMH
T4 chain: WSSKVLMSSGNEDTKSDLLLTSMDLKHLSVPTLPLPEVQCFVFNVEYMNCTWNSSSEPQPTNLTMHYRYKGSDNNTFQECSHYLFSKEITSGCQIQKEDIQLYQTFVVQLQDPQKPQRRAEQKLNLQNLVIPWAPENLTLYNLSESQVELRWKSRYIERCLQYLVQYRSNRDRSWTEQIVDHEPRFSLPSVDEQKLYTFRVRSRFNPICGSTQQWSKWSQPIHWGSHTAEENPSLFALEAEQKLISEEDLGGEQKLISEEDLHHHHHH
In short: as §4

[5] = molecular target: T5, Mouse IL2Rγ extracellular domain expressed with a C-terminal myc-myc-hexahistidine tag (mouse); experiment: SPR Biacore 4000, anti-hFc-captured mAb, 37 C
T5 construct: whole entry is the tagged construct; also called mIL-2Rg-MMH
T5 chain: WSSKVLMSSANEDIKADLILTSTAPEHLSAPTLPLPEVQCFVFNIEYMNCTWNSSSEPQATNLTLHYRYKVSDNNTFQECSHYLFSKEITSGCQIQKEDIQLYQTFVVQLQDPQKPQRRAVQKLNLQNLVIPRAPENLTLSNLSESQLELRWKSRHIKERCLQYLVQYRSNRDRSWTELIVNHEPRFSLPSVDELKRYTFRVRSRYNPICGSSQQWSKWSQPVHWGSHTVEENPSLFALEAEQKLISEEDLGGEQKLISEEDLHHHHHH
In short: as §4

[6] = molecular target: T2, Human IL2Rγ extracellular domain …; experiment: SPR Biacore 4000, anti-hFc-captured mAb, 37 C
In short: as §4

[7] = molecular target: T4, Rat IL2Rγ extracellular domain …; experiment: SPR Biacore 4000, anti-hFc-captured mAb, 25 C
In short: as §4

[8] = molecular target: T5, Mouse IL2Rγ extracellular domain …; experiment: SPR Biacore 4000, anti-hFc-captured mAb, 25 C
In short: as §4

[9] = molecular target: T2, Human IL2Rγ extracellular domain …; experiment: SPR Biacore 4000, anti-hFc-captured mAb, 25 C
In short: as §4

[10] = molecular target: T2, Human IL2Rγ extracellular domain …; experiment: SPR Biacore 4000, anti-hFc-captured mAb, 37 C; no dissociation observed, kd manually fixed at 1.00E-05
[11] = molecular target: T2, Human IL2Rγ extracellular domain …; experiment: SPR Biacore 4000, anti-hFc-captured mAb, 25 C; no dissociation observed, kd manually fixed at 1.00E-05
[12] = molecular target: T2, Human IL2Rγ extracellular domain …; experiment: SPR Biacore 4000, anti-hFc-captured mAb, 25 C; computed with kd fixed at 1.00E-05
Protocol: as §2, §3

[13] = molecular target: T1, human IL-2Rγ expressed on cells; experiment: flow cytometry on NK-92 cells, antibody at 10 µg/ml, MFI of sample over MFI of unstained; upper end, tied by Table 9-2 to the row printed H4H13841P
[14] = molecular target: T1, human IL-2Rγ expressed on cells; experiment: flow cytometry on NK-92 cells, antibody at 10 µg/ml, MFI of sample over MFI of unstained; lower end, tied to H4H13538P by Table 9-2
Protocol: as §1

[15] = molecular target: T1, human IL-2Rγ expressed on cells; experiment: flow cytometry on Jurkat cells, antibody at 10 µg/ml, MFI of sample over MFI of unstained; upper end, tied to H4H12889P by Table 9-1
Protocol: as §1

[16] = molecular target: T1, human IL-2Rγ expressed on cells; experiment: flow cytometry on NK-92 cells, antibody at 10 µg/ml, MFI of sample over MFI of unstained; upper end, tied to H4H12889P by Table 9-1
Protocol: as §1

B1: H4H12859P (antibody, human IgG4 S228P, kappa, V domains shown)
VH: QVQLVQSGAEVKKPGASVRVSCKASGYTFTDYDIHWVRQAPGHGLEWMGWINPNSGGTNYAQKFQGRVTMTRDTSISTVYMDLSRLRSDDTAVYYCARADYSSSYYYYGMDVWGQGTTVTVSS
VL: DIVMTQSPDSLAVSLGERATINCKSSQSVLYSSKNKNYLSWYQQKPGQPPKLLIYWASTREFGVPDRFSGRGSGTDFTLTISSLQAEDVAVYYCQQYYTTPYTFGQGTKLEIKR
notes: fully human anti-IL2Rγ antibody, human IgG4
Binder B1 has a binding ratio [1] of 1.

B2: H4H12908P (antibody, human IgG4 S228P, kappa, V domains shown)
VH: EVQLVESGGRLVQPGGSLRLSCEASGFTFSNYGMTWVRQAPGKGLEWVSVISGSDNRKYYAESVKGRFTISRDNSKNTLYLQMNSLRAEDTAVYYCAKLGYSRSSKDFYYGMDVWGQGTTVTVSS
VL: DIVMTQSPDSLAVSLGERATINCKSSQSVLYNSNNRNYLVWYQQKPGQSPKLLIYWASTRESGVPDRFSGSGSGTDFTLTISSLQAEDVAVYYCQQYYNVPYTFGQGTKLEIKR
notes: fully human anti-IL2Rgamma mAb, human IgG4 Fc
For B2, the Kd [2] was at most 0.518 nM, the t1/2 [2] was at least 1160 min and the “100 nM Ag Bound” value [3] was 13 RU. It also gave a Kd [3] of 39.8 nM, a koff [3] of 0.00148 s⁻¹ and a kon [3] of 37100 M⁻¹ s⁻¹. The t1/2 [3] was 8 min, the “100 nM Ag Bound” value [4] was 8 RU and the Kd [4] was 215 nM. It also gave a koff [4] of 0.00835 s⁻¹, a kon [4] of 38900 M⁻¹ s⁻¹ and a t1/2 [4] of 1.4 min. For the same binder, the “100 nM Ag Bound” value [5] was 6 RU, the Kd [5] was 387 nM and the koff [5] was 0.0293 s⁻¹. The kon [5] was 75700 M⁻¹ s⁻¹, the t1/2 [5] was 0.4 min and the “50 nM Ag Bound” value [6] was 8 RU. For the same binder, the kon [6] was 19300 M⁻¹ s⁻¹, the “100 nM Ag Bound” value [7] was 19 RU and the Kd [7] was 79.3 nM. The koff [7] was 0.00237 s⁻¹, the kon [7] was 29800 M⁻¹ s⁻¹ and the t1/2 [7] was 5 min. For the same binder, the “100 nM Ag Bound” value [8] was 25 RU, the Kd [8] was 108 nM and the koff [8] was 0.00367 s⁻¹. The kon [8] was 34100 M⁻¹ s⁻¹, the t1/2 [8] was 3.1 min and the “50 nM Ag Bound” value [9] was 11 RU. It also gave a kon [9] of 76200 M⁻¹ s⁻¹, a koff [10] of at most 1e-05 s⁻¹ and a koff [11] of at most 1e-05 s⁻¹. For the same binder, the Kd [12] was at most 0.131 nM and the t1/2 [12] was at least 1160 min.

B3: H4H13541P (antibody, human IgG4 S228P, kappa, V domains shown)
VH: EVQLVESGGGVVRPGGSLRLSCAASGFIFDDYDMSWVRQPPGRGLEWVSGIDWFGGTRGYADSMKGRFTISRDNAKNSLYLQMNSLRVEDTAFYYCARGGAIVGAVTPFDYWGQGTLVTVSS
VL: DIQMTQSPSSLSASVGNRVTLSCRASQSINTYLSWYQQRPGKAPKLLIYAASSLQSGVPSRFSGSGAGTDFTLTISSLQPEDFATYYCQQSYSAPLTFGGGTKVEIKR
notes: as for B1
B3 was tested, and the binding ratio [13] was 37.

B4: H4H13538P (antibody, human IgG4 S228P, kappa, V domains shown)
VH: EVQLVESGGGLVQPGGSLGLSCAASGFTFSNYAMSWVRQAPGKGLEWVSAVSGGGGGTYYADSVKGRFTISRDNSKNTVLLQMNSLRAEDTAVYYCARGRTGGLDYWGPGTLVTVSS
VL: DVVMTQSPLSLPVIFGQPASISCRSSQSLVDSDGNTYLNWLQQRPGQSPRRLIYEVSNRDSGVPDRFSGSGSGTDFTLTISRVEAEDVGIYYCMQGTRWPPTFGGGTKVEIKR
notes: as for B1
With B4 the binding ratio [14] was 1.

B5: H4H12889P (antibody, human IgG4 S228P, kappa, V domains shown)
VH: EVQLVESGGGLVQPGGSLRLSCAASGFIFSSYEMHWVRQAPGKGLEWISYISSSGTTIYYADSVKGRFTISRDNAKNSLYLHMNSLRAEDTAVYYCTRARITGTFDVFDIWGQGTMVTVSS
VL: DIQMTQSPSSLSASVGDRVTITCRASQSISSYLNWYQQKPGKAPKLLIFAASNLQSGVPSRFSGSRSGTDFTLTISSLQPEDFATYYCQQNYNIPYTFGQGTKLEIKR
notes: fully human anti-IL2Rγ antibody, human IgG4; also called REGN7257
In the case of B5, the binding ratio [15] is reported as 19 and the binding ratio [16] is reported as 94.
